According to patent US8026218 (UNIVERSITY OF ARIZONA, dated 2011):
Bridge positions count the residues as written; N and C are the ends. Square brackets hold non-standard residues; d marks the D form. Ends that are not written are not given here. * marks the point of attachment. NHBn(CF3)2 = C-terminal amide NH-Bn(CF3)2, a benzyl group carrying two CF3; Glc = O-glucosyl on Ser side chain (Ser(OGlu)/Ser(OGlc)); NH(3,5-(CF3)2-benzyl) = FC(F)(F)c1cc(CN*)cc(C(F)(F)F)c1; NMeBn(3,5-(CF3)2) = CN(Cc1cc(C(F)(F)F)cc(C(F)(F)F)c1)*; OBzl(3,5-(CF3)2) = FC(F)(F)c1cc(CO*)cc(C(F)(F)F)c1; NH‑Bn(CF3)2 = C-terminal Bn(CF3)2 amide; Dmt = Cc1cc(O)cc(C)c1C[C@H](N)C(=O)O; NMe(benzyl) = CN(Cc1ccccc1)*; Nle = CCCC[C@H](N)C(=O)O; NHBn = c1ccc(CN*)cc1; OBn = c1ccc(CO*)cc1; βAla = NCCC(=O)O

B1: TyrDAlaGlyPheDPheProLeuTrpOBn(CF3)2 (TY007) (peptide)
peptide: Y[dA]GF[dF]PLW-{OBzl(3,5-(CF3)2)}
B2: TyrDAlaGlyPheGlyProLeuTrpOBn(CF3)2 (TY006) (peptide)
peptide: Y[dA]GFGPLW-{OBzl(3,5-(CF3)2)}
B3: TyrDAlaGlyPhePheProLeuTrpNHBn(CF3)2 (TY015) (peptide)
peptide: Y[dA]GFFPLW-{NHBn(CF3)2}
B4: TyrDAlaGlyPheLeuProLeuTrpOBn(CF3)2 (TY004) (peptide)
peptide: Y[dA]GFLPLW-{OBzl(3,5-(CF3)2)}
B5: TyrDAlaGlyPhePheProLeuTrpOBn(CF3)2 (TY003) (peptide)
peptide: Y[dA]GFFPLW-{OBzl(3,5-(CF3)2)}
B6: TyrDAlaGlyPheSer(OGlu)ProLeuTrpNHBn(CF3)2 (TY042) (peptide)
peptide: Y[dA]GFSPLW-{NH(3,5-(CF3)2-benzyl)}
modifications: not fully specified (residue 5); printed as TyrDAlaGlyPheSer(OGlu)ProLeuTrpNHBn(CF3)2
B7: TyrDCysGlyPheMetProLeuTrpOBn(CF3)2 (TY031) (peptide)
peptide: Y[dC]GFMPLW-{OBzl(3,5-(CF3)2)}
B8: TyrDAlaGlyPhePheProLeuTrpNMeBn(CF3)2 (TY017) (peptide)
peptide: Y[dA]GFFPLW-{NMeBn(3,5-(CF3)2)}
B9: TyrDAlaGlyPhePheProLeuTrpOBn (TY014) (peptide)
peptide: Y[dA]GFFPLW-OBn
B10: DmtDAlaGlyPheMetProLeuTrpNHBn (TY034) (peptide)
peptide: [Dmt][dA]GFMPLW-NHBn
B11: Tyr[DPenGlyPhePen]ProLeuTrpNHBn(CF3)2 (TY046) (peptide)
peptide: YXGFXPLW
modifications: D-Pen (D-penicillamine) at 2 (X); Pen (L-penicillamine) at 5 (X); disulfide 2-5 (cyclic); C-terminal NH-Bn(CF3)2 amide
B12: MetProLeuTrpOBn(CF3)2 (TY036) (peptide)
peptide: MPLW-{OBzl(3,5-(CF3)2)}
B13: Tyr[DCysGlyPheNleProCys]TrpNHBn(CF3)2 (TY035) (peptide)
peptide: Y[dC]GF[Nle]PCW-{NH(3,5-(CF3)2-benzyl)}
modifications: disulfide 2-7
notes: also called [D-Cys2, Cys7]TY027
B14: Tyr-DAla-Gly-Phe-β-Ala-Trp-O-Bzl(CF3)2 (peptide)
peptide: Y[dA]GF[βAla]W-{O‑Bzl(CF3)2}
notes: also called NP32
B15: Tyr[DPenGlyPheDPen]ProLeuTrpNHBn(CF3)2 (TY049) (peptide)
peptide: YXGFXPLW
modifications: D-Pen at 2 and 5 (X); disulfide 2-5 (cyclic); C-terminal NH-Bn(CF3)2 amide
B16: DmtDAlaGlyPheNleProSer(OGlu)TrpNHBn(CF3)2 (TY056) (peptide)
peptide: [Dmt][dA]GF[Nle]PS(Glc)W-{NH‑Bn(CF3)2}
B17: TyrDAlaGlyPheNleProSer(OGlu)TrpNHBn(CF3)2 (TY041) (peptide)
peptide: Y[dA]GF[Nle]PS(Glc)W-{NH‑Bn(CF3)2}
B18: Tyr-DAla-Gly-Phe-Gly-Trp-O-Bzl(CF3)2 (peptide)
peptide: Y[dA]GFGW-{O‑Bzl(CF3)2}
B19: H-Tyr-DAla-Gly-Phe-Pro-Leu-Trp-NH-Bzl (peptide)
peptide: H-Y[dA]GFPLW-NHBn
modifications: also: TFA salt
notes: TFA salt; also called TY008
B20: H-Tyr-D-Ala-Gly-Phe-Pro-Leu-Trp-NMe-Bzl (peptide)
peptide: H-Y[dA]GFPLW-{NMe(benzyl)}
modifications: also: TFA salt
notes: TFA salt; also called TY010

Each binder was assayed against T1, human δ opioid receptor (human, UniProt P41143 1-372) (assay: radioligand competition vs [3H]DPDPE, membranes of hDOR cells).
T1 construct: whole, on cells; Used as crude membrane preparations of the transfected cells; also called hDOR; DOR
T1 sequence (P41143 whole entry, stated change not applied): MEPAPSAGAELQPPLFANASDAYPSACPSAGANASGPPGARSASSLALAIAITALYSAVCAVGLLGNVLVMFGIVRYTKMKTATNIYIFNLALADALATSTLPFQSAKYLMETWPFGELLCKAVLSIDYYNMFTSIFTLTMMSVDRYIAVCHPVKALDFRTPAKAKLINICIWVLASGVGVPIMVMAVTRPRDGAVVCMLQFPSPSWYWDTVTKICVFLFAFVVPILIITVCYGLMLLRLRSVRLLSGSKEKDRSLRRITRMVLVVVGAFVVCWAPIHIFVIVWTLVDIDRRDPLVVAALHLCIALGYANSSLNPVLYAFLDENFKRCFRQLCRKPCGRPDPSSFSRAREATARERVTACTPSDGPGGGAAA

| Binder | Ki [nM] |
| --- | --- |
| B1 | 110 |
| B2 | 36.1 |
| B3 | 12.5 |
| B4 | 5 |
| B5 | 14.6 |
| B6 | 58.5 |
| B7 | 55.4 |
| B8 | 26.5 |
| B9 | 11.5 |
| B10 | 0.1 |
| B11 | 1.7 |
| B12 | 1280 |
| B13 | 1.29 |

The binders below were run against T2, rat µ opioid receptor (rat, UniProt P33535 1-398) (assay: competition vs [3H]DAMGO, rMOR cell membranes).
T2 construct: whole, on cells; membrane preparations of the transfected cells were used; also called rMOR; MOR
T2 sequence (P33535 whole entry): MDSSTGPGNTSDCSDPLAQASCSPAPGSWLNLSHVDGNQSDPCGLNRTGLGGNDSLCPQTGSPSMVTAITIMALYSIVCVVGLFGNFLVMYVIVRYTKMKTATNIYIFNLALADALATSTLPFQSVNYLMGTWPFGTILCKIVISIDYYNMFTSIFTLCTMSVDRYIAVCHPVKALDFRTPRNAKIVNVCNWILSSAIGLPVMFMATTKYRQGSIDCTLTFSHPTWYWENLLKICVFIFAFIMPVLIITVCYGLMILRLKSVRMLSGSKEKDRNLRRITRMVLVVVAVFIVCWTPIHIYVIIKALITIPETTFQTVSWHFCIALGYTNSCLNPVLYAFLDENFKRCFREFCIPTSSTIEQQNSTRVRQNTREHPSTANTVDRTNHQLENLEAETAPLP

| Binder | Ki [nM] |
| --- | --- |
| B14 | 11.2 |

What follows are binders tested against T3, rat NK1 receptor (rat, UniProt P14600 1-407) (assay: competition vs [3H]Substance P, rNK1 CHO cell membranes).
T3 construct: whole, on cells; membrane preparations of the transfected cells were used; also called rNK1; rNK-1
T3 sequence (P14600 whole entry): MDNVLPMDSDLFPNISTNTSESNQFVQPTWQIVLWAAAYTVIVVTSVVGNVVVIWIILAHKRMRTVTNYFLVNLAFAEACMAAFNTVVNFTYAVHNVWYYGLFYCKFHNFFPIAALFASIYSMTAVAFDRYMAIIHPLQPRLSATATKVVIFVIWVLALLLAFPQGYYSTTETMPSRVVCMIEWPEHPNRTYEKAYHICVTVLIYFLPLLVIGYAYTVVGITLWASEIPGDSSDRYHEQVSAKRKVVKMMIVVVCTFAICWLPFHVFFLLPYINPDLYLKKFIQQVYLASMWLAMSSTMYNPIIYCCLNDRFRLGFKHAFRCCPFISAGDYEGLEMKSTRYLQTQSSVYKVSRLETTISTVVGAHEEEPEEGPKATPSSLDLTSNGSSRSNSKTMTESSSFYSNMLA

| Binder | Ki [nM] |
| --- | --- |
| B14 | 1.6 |

Each binder was assayed against T4, rat µ opioid receptor (rat, UniProt P33535 1-398) (assay: cell-based or functional assay).
T4 sequence (P33535 whole entry): as the sequence (P33535 whole entry) above

| Binder | GTP binding rMOR EC50 [nM] | GTP binding rMOR Emax [%] |
| --- | --- | --- |
| B1 | 345 | 23.6 |
| B2 | 41.7 | 35.9 |
| B3 | 176 | 64.4 |
| B4 | – | 44.5 |
| B5 | 58.7 | 36.3 |
| B6 | 176 | 28 |
| B8 | 349 | 62.4 |
| B9 | 76 | 72.3 |
| B15 | – | 25 |
| B10 | 0.4 | – |
| B16 | 44.9 | 66 |
| B17 | 18 | 42 |
| B13 | 36 | 39 |

These binders were tested against guinea pig NK1 receptor (guinea pig, UniProt P30547 1-407) (assay: cell-based or functional assay).
Chain of guinea pig NK1 receptor (P30547 whole entry): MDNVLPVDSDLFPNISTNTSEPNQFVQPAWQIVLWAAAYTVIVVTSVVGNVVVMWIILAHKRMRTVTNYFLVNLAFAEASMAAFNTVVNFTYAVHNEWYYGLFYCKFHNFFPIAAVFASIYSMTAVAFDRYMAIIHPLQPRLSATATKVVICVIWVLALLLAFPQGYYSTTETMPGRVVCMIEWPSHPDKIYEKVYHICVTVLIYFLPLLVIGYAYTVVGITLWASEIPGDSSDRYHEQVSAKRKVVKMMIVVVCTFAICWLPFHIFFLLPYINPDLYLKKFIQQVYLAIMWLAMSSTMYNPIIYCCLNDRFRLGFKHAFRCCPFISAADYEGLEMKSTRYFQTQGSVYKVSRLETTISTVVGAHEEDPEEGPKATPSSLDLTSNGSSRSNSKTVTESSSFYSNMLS

| Binder | GPI/LMMP SP antagonist Ke [nM] |
| --- | --- |
| B1 | 69.6 |
| B2 | 5.4 |
| B4 | 19.4 |
| B5 | 14.4 |
| B6 | 2.83 |
| B10 | 36.9 |
| B16 | 1.2 |
| B17 | 1.8 |
| B13 | 2.2 |

Each binder was assayed against T1, human δ opioid receptor (assay: cell-based or functional assay).

| Binder | GTP binding hDOR EC50 [nM] | GTP binding hDOR Emax [%] |
| --- | --- | --- |
| B1 | 16.7 | 22.9 |
| B2 | 50.2 | 33.6 |
| B3 | 81.4 | 142 |
| B4 | 9.6 | 42.5 |
| B5 | 20.8 | 39 |
| B6 | 51.9 | 47 |
| B8 | 122 | 125 |
| B9 | 25.6 | 137 |
| B10 | 0.3 | – |
| B17 | 7.9 | 62 |
| B11 | 17.2 | 15 |
| B13 | 0.02 | 11 |

Each binder was assayed against µ opioid receptor of the guinea pig isolated ileum (guinea pig, UniProt P97266 1-98) (assay: cell-based or functional assay).
Chain of µ opioid receptor of the guinea pig isolated ileum (P97266 whole entry): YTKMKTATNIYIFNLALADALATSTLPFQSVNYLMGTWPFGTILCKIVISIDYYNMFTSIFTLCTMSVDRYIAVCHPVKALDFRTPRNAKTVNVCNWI

| Binder | GPI/LMMP opioid(mu) agonist IC50 |
| --- | --- |
| B1 | 9.2% |
| B2 | 384 nM |
| B4 | 341 nM |
| B5 | 6.6 % @ 1 uM |
| B6 | 1890 nM |
| B10 | 11.4 nM |
| B16 | 24.9 nM |
| B17 | 517 nM |
| B13 | 1010 nM |

These binders were tested against T5, rat NK1 receptor (rat, UniProt P14600 1-407) (assay: radioligand competition vs [3H]substance P, membranes of rNK1 CHO cells).
T5 construct: whole, on cells; Used as membrane preparations of transfected CHO cells; also called rNK1; rat neurokinin-1 receptor
T5 sequence (P14600 whole entry): as the sequence (P14600 whole entry) above

| Binder | Ki [nM] |
| --- | --- |
| B1 | 3 |
| B2 | 1 |
| B3 | 0.98 |
| B4 | 0.8 |
| B5 | 0.88 |
| B6 | 1.45 |
| B7 | 7.06 |
| B8 | 0.57 |
| B9 | 124 |
| B15 | 4.54 |
| B10 | 317 |
| B16 | 10.1 |
| B17 | 13.6 |
| B12 | 0.99 |

What follows are binders tested against T2, rat µ opioid receptor (assay: cell-based or functional assay).

| Binder | GTP EMax |
| --- | --- |
| B18 | 36 |
| B14 | 70 |

These binders were tested against human δ opioid receptor (human, UniProt P41143 1-372) (assay: cell-based or functional assay).
Target sequence in this assay (P41143 whole entry, stated change not applied): as the sequence (P41143 whole entry, stated change not applied) above

| Binder | GTP EMax |
| --- | --- |
| B18 | 87 |
| B14 | 87 |

The binders below were run against T6, human NK1 receptor (human, UniProt P25103 1-407) (assay: radioligand competition vs [3H]substance P, membranes of hNK1 CHO cells).
T6 construct: whole, on cells; Used as membrane preparations of transfected CHO cells; also called hNK1; human neurokinin-1 receptor
T6 sequence (P25103 whole entry): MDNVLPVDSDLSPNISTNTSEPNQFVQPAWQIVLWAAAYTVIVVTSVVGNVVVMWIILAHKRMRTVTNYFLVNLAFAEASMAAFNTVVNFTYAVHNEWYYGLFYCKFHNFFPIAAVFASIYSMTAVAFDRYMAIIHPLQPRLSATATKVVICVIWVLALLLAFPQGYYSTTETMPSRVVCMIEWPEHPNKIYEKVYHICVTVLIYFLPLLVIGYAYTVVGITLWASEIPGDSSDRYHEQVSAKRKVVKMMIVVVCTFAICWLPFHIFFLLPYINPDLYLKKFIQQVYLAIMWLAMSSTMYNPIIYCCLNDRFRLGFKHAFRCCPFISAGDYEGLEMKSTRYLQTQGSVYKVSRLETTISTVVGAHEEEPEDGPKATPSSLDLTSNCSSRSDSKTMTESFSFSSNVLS

| Binder | Ki [nM] |
| --- | --- |
| B1 | 1.3 |
| B2 | 0.016 |
| B3 | 0.192 |
| B4 | 0.016 |
| B5 | 0.021 |
| B6 | 0.00027 |
| B7 | 0.847 |
| B8 | 0.213 |
| B9 | 0.265 |
| B15 | 0.18 |
| B10 | 2.39 |
| B16 | 0.0017 |
| B11 | 0.0053 |
| B13 | 0.091 |

Each binder was assayed against T4, rat µ opioid receptor (assay: radioligand competition vs [3H]DAMGO, membranes of rMOR cells).

| Binder | Ki [nM] |
| --- | --- |
| B1 | 410 |
| B2 | 27 |
| B3 | 53.7 |
| B4 | 23.3 |
| B5 | 28.3 |
| B6 | 256 |
| B7 | 172 |
| B8 | 74.7 |
| B9 | 36.3 |
| B15 | 2050 |
| B10 | 0.14 |
| B16 | 1.9 |
| B17 | 8 |
| B11 | 2330 |
| B12 | 4550 |
| B13 | 79.2 |

What follows are binders tested against T7, human NK1 receptor (human, UniProt P25103 1-407) (assay: competition vs [3H]substance P, membranes of hNK1-transfected CHO cells).
T7 construct: whole, on cells; Assayed as membrane preparations of transfected CHO cells; also called hNK1; human neurokinin-1 receptor
T7 sequence (P25103 whole entry): as above

| Binder | Ki [nM] | LogIC50 |
| --- | --- | --- |
| B19 | 14 | – |
| B20 | 1.6 | -8.5 |
